The assay concerns the target Insulin. Kind of assay: low stringency direct binding ELISA on coated insulin, antibody dilutions from 10 µg/mL.

Drawing on US20240261423A1, this text covers Polyreactivity Score for two substances.

Insulin, sequence (P01308 25-54, chain 1 of 2): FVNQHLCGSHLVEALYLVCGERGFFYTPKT
Insulin, sequence (P01308 90-110, chain 2 of 2): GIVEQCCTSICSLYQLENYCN

For “Negative Control (polyreactivity assay) (antibody)”, the Polyreactivity Score came to 5.03. The same measure for “Positive Control (polyreactivity assay) (antibody)”: 12.2.
